Primed or numbered codes have the meaning given here. The star is where a group is joined. Dabcyl′ = CN(C)c1ccc(/N=N/c2ccc(C(=O)*)cc2)cc1; fluorescein = fluorescein label

What all share (test): cell-based or functional assay
Assay [1] has as its target T1, collagenase 1 (UniProt P03956 100-469, limits assumed).
T1 sequence (looked up): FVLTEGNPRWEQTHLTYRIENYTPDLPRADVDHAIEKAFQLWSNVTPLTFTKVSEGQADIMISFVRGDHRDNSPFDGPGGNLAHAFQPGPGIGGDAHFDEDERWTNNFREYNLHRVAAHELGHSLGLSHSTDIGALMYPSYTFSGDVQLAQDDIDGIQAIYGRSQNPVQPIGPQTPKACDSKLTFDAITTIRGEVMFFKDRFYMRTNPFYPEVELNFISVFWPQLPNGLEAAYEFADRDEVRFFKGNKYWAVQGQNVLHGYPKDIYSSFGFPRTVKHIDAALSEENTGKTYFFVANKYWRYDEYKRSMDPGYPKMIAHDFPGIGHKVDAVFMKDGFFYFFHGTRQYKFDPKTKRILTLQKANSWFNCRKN

Assay [2] deals with T2, human Gelatinase-A (human, UniProt P08253 110-660, limits assumed).
T2 sequence (looked up): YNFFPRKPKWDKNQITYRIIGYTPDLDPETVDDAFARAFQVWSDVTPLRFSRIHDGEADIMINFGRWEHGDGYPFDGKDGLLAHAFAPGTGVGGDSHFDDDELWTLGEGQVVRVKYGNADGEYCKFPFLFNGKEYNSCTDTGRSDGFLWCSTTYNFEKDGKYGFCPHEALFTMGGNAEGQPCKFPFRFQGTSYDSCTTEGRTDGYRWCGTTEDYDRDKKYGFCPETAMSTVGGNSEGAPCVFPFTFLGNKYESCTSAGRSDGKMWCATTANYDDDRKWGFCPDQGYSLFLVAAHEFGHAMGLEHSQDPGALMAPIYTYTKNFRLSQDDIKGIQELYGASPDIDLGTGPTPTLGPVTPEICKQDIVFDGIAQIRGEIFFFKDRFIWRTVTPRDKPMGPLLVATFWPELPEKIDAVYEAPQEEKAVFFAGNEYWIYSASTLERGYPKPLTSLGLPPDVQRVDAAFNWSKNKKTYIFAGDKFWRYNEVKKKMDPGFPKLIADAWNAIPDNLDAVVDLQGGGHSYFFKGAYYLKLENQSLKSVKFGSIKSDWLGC

For assay [3], the target named is T3, gelatinase B (UniProt P14780 107-707, limits assumed).
T3 sequence (P14780 107-707 limits assumed): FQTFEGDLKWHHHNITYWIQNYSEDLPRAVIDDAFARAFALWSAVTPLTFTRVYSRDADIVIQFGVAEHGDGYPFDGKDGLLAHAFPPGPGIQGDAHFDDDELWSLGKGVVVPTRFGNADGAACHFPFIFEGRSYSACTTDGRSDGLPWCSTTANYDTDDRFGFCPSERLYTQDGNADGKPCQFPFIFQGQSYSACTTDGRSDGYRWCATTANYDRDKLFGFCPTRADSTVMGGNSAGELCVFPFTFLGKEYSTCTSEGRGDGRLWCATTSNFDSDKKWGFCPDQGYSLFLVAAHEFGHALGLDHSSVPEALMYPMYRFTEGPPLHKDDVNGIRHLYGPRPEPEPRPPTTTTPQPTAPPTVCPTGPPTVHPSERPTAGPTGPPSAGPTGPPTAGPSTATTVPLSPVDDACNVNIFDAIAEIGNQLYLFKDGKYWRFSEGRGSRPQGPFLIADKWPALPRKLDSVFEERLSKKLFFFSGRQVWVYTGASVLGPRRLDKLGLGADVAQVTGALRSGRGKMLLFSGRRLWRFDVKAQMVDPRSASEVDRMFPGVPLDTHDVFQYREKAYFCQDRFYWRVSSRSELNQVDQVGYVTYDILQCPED
The target of assay [4] is T4, stromelysin 1 (UniProt P08254 100-477, limits assumed).
T4 sequence (P08254 100-477 limits assumed): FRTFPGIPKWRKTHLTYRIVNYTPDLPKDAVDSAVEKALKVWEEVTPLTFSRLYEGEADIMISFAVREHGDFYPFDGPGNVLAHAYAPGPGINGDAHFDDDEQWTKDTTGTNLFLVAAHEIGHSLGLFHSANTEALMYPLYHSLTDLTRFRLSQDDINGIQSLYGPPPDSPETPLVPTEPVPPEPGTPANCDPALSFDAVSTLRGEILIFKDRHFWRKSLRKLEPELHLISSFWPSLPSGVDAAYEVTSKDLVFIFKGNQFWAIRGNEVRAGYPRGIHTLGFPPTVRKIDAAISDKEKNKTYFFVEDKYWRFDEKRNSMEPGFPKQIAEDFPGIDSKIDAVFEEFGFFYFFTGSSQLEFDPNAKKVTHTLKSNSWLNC
Assay [5] has as its target T1, collagenase 1. The source holds these as a separate data set.
Assay [6] concerns the target T2, human Gelatinase-A. This is another data set of the same source.
Assay [7] has as its target T3, gelatinase B. The source holds these as a separate data set.
In assay [8] the target is T4, stromelysin 1. The source holds these as a separate data set.
The target in assay [9] is T1, collagenase 1. The source holds these as a separate data set.
The target in the next assay is human Collagenase-3 (human, UniProt P45452 104-471, limits assumed).

In the case of {Dabcyl′}-GPLGMRGC(fluorescein)-NH2 [Dabcyl-GPLGMRGC(Fluorescein)-NH2], the “selectivity towards Col-3” value with collagenase 1 [1] came to 215 fold. The “Selectivity v Col-3, + Gel” value in the assay with human Gelatinase-A [2] stood at 25.8 unitless; in the assay with gelatinase B [3] it was 6.3 unitless; with stromelysin 1 [4], 769 unitless; with collagenase 1 [5], 78.4 unitless.
As to {Dabcyl′}-GPVNLHGC(fluorescein)-NH2 [Dabcyl-GPVNLHGC(Flu)-NH2], in the assay with human Gelatinase-A [6], the “Improvement In Selectivity for 44 ug/ml Type II Collagen vs no Type II Collagen” value was determined as 80 fold; the “Selectivity v Col-3, + 1.6 ug/ml TIICol” value stood at 9.3 unitless; the “Selectivity v Col-3, + 4.9 ug/ml TIICol” value stood at 26.3 unitless; the “Selectivity v Col-3, + 15 ug/ml TIICol” value worked out at 75.9 unitless. For the same molecule, in the assay with human Gelatinase-A [6], the “Selectivity v Col-3, + 44 ug/ml TIICol” value was 465 unitless; the “Selectivity v Col-3, + .18 ug/ml TIICol” value was found to be 7.7 unitless; the “Selectivity v Col-3, + .55 ug/ml TIICol” value is 9.9 unitless; the “Selectivity v Col-3, no TIICol” value amounted to 5.8 unitless. In the assay with gelatinase B [7], the “Improvement In Selectivity for 44 ug/ml Type II Collagen vs no Type II Collagen” value was found to be 46 fold; the “Selectivity v Col-3, + 1.6 ug/ml TIICol” value came to 3 unitless; the “Selectivity v Col-3, + 4.9 ug/ml TIICol” value is 5.7 unitless; the “Selectivity v Col-3, + 15 ug/ml TIICol” value was 15.2 unitless. In the assay with gelatinase B [7], the “Selectivity v Col-3, + 44 ug/ml TIICol” value came out at 58.8 unitless; the “Selectivity v Col-3, + .18 ug/ml TIICol” value turned out to be 1.8 unitless; the “Selectivity v Col-3, + .55 ug/ml TIICol” value is 2.2 unitless; the “Selectivity v Col-3, no TIICol” value was determined as 1.3 unitless. In the assay with stromelysin 1 [8], the “Improvement In Selectivity for 44 ug/ml Type II Collagen vs no Type II Collagen” value amounted to 2.5 fold; the “Selectivity v Col-3, + 1.6 ug/ml TIICol” value came out at 389 unitless; the “Selectivity v Col-3, + 4.9 ug/ml TIICol” value is 335 unitless; the “Selectivity v Col-3, + 15 ug/ml TIICol” value was 447 unitless. In addition, in the assay with stromelysin 1 [8], the “Selectivity v Col-3, + 44 ug/ml TIICol” value turned out to be 476 unitless; the “Selectivity v Col-3, + .18 ug/ml TIICol” value worked out at 263 unitless; the “Selectivity v Col-3, + .55 ug/ml TIICol” value is 281 unitless; the “Selectivity v Col-3, no TIICol” value was determined as 192 unitless. Moreover, in the assay with collagenase 1 [9], the “Improvement In Selectivity for 44 ug/ml Type II Collagen vs no Type II Collagen” value is 2.5 fold; the “Selectivity v Col-3, + 1.6 ug/ml TIICol” value stood at 227 unitless; the “Selectivity v Col-3, + 4.9 ug/ml TIICol” value was found to be 265 unitless; the “Selectivity v Col-3, + 15 ug/ml TIICol” value came out at 355 unitless. In the assay with collagenase 1 [9], the “Selectivity v Col-3, + 44 ug/ml TIICol” value came to 424 unitless; the “Selectivity v Col-3, + .18 ug/ml TIICol” value was 190 unitless; the “Selectivity v Col-3, + .55 ug/ml TIICol” value was 221 unitless; the “Selectivity v Col-3, no TIICol” value came to 166 unitless. Further, in the assay with human Collagenase-3, the “increase in specificity with type II collagen” value amounted to 2.5 fold. For the same molecule, in the assay with human Gelatinase-A [2], the “Selectivity v Col-3” value stood at 2.3 unitless and the “Selectivity v Col-3, + Gel” value came out at 26.5 unitless. Besides, in the assay with gelatinase B [3], the “Selectivity v Col-3” value came to 0.7 unitless and the “Selectivity v Col-3, + Gel” value was found to be 6 unitless. In the assay with stromelysin 1 [4], the “Selectivity v Col-3” value came to 71.3 unitless and the “Selectivity v Col-3, + Gel” value amounted to 72.5 unitless. Also, in the assay with collagenase 1 [5], the “Selectivity v Col-3” value is 128 unitless and the “Selectivity v Col-3, + Gel” value came out at 92.3 unitless.

Values taken from patent publication US20030229005A1 (BIOZYME, published 2003).
